The text below walks through data of patent publication US20170002074A1 (Genentech, published 2017).

Assay [1] deals with T1, huCD33 R69G variant (human, UniProt P20138 18-364).
T1 construct: also called G69 CD33; SNP R69G (r2455069)
Briefly: FACS, direct Dylight 488 conjugate, on 293AD cells labelled 'SNPG69R', taken as the SNP variant of paragraph 650.

Assay [2] deals with T2, Cynomolgus monkey CD33 (cynomolgus monkey).
T2 construct: Used for recombinant CD33 on HEK293AD cells and endogenous CD33 on cynomolgus CD14+/CD33+ myeloid cells; also called cynoCD33; cyno CD33
Briefly: FACS, HEK293AD cells stably expressing cynomolgus CD33. (In general: Flow cytometry measures light scatter and fluorescence of single cells or particles in a stream.)

Assay [3] concerns the target T3, Human CD33 (human, UniProt P20138 18-364).
T3 construct: One molecule is used for recombinant CD33 on HEK293AD/293 cells and for endogenous human CD33 on tumor or myeloid cells; the cell is named under assay; also called huCD33; hu CD33
Nature of the assay: Scatchard analysis, [125I]-labeled antibody competed by unlabeled antibody, Molm-13 cells (endogenous CD33).

For assay [4], the target named is T3, Human CD33. Nature of the assay: FACS titration on EOL-1 cells (endogenous huCD33), geometric mean fluorescence, 0.1-10 µg/ml antibody.
Assay [5] addresses T3, Human CD33. Briefly: Scatchard analysis, [125I]-labeled antibody competed by unlabeled antibody, HEK293AD cells stably expressing human CD33.
Assay [6] addresses T2, Cynomolgus monkey CD33. Briefly: Scatchard analysis, [125I]-labeled antibody competed by unlabeled antibody, HEK293AD cells stably expressing cynomolgus CD33.
Assay [7] addresses T1, huCD33 R69G variant. Briefly: FACS, direct Dylight 488 conjugate, on 293AD cells labelled 'SNPG69R', taken as the SNP variant of paragraph 650. The source holds these as a separate data set.
Assay [8] deals with T4, Construct-88B: CD33 Ig-like V (M17-V136 including spacer H137-H143) linked to an irrelevant Ig-like C … (human).
T4 construct: also called Ig-like V domain of huCD33
Nature of the assay: FACS on 293 cells transiently transfected with construct 88B, Dylight-650 labelled antibody at 1-10 µg/ml.

Assay [9] deals with T5, Construct-88: irrelevant Ig-like V linked to a CD33 Ig-like C (R144-Q228 including TM/CD L229) (human).
T5 construct: N-terminal or cytoplasmic tags were attached
Nature of the assay: FACS on 293 cells transiently transfected with construct 88, Dylight-650 labelled antibody at 1-10 µg/ml.

In assay [10] the target is T4, Construct-88B: CD33 Ig-like V (M17-V136 …). Briefly: FACS, Dylight-650 labeled antibody (1-10 ug/ml) on 293 cells transiently transfected with construct 88B.
Assay [11] concerns the target T2, Cynomolgus monkey CD33. Nature of the assay: Scatchard analysis, HEK293AD cells stably expressing cynomolgus CD33; Scatchard analysis on 293-cynCD33 cells.

Read-outs that look alike come from different tables or passages of the source. Where only a bound is given, the exact number is not on record here.

In general, Kd refers to the free concentration of one partner at which half of the binding sites on the other are occupied at equilibrium, for simple one-to-one binding. Usually EC50 stands for the concentration giving half of the maximal effect.

B1: 23E4 (antibody, V domains shown)
VH: EVQLQQSGAELVRPGASVKLSCKASGYTFTNYWMNWVKQRPGQGLEWIGMIDPSDNETHYSQMFKDKATLTVDKSSSTAYMQLISLTSEDSAVYYCAGYYGNFGWFVYWGQGTLVTVSA
VL: DIFMTQTPLSLPVSLGDPASISCRSSQTIVHSNGNTYLEWYLQKPGQSPKLLIYKVSNRFSGVPDRFSGSGSGTDFTLKISRVEAEDLGVYYCFQGSHVPPTFGGGTKVEIK
As to B1, the “Geom. Mean:FL1-H” value in the assay with huCD33 R69G variant [1] turned out to be 50.1. Besides, the binding result in the assay with Cynomolgus monkey CD33 [2] is listed as “no binding (tested: 1 mg/ml)”.

B2: 9C3 (antibody, V domains shown)
VH: EVQLVESGGALIQPGGSLRLSCVASGFTISGNYMSWVRQAPGKGLEWVSLIYSGDSTYYADSVKGRFNISRDISKNTVYLQMNSLRVEDTAVYYCVRDGYYVSDMVVWGKGTTVTVSS
VL: DIQMTQSPSSLSASVGDRVTITCRASQGIRNDLGWYQQKPGKAPKRLIYAASSLQSGVPSRFSGSGSGTEFTLTISSLQPEDFATYYCLQHNSYPWTFGQGTKLEIK
modifications: atypical N-linked glycosylation site in the heavy chain between CDR2 and CDR3 at position 69 (kabat #)
For B2, the Kd came out at 5.8 nM with Human CD33 [3], 0.8 nM with Human CD33 [5] and 0.6 nM with Cynomolgus monkey CD33 [6]. Also, the EC50 with Human CD33 [4] worked out at 0.54 µg/mL.

B3: 9C3.4 (antibody, V domains shown)
VH: EVQLVESGGALIQPGGSLRLSCVASGFTISGNYMSWVRQAPGKGLEWVSLIYSGDSTYYADSVKGRFAISRDISKNTVYLQMNSLRVEDTAVYYCVRDGYYVSDMVVWGKGTTVTVSS
VL: DIQMTQSPSSLSASVGDRVTITCRASQGIRNDLGWYQQKPGKAPKRLIYAASSLQSGVPSRFSGSGSGTEFTLTISSLQPEDFATYYCLQHNSYPWTFGQGTKLEIK
notes: Variant of 9C3 with the heavy chain N-glycosylation site removed
In the assay with Human CD33 [3], B3 returned a Kd of 2.7 nM. Also, it took 0.23 µg/mL to reach a half-maximal effect with Human CD33 [4] (EC50).

B4: 9C3.3 (antibody, V domains shown)
VH: EVQLVESGGALIQPGGSLRLSCVASGFTISGNYMSWVRQAPGKGLEWVSLIYSGDSTYYADSVKGRFSISRDISKNTVYLQMNSLRVEDTAVYYCVRDGYYVSDMVVWGKGTTVTVSS
VL: DIQMTQSPSSLSASVGDRVTITCRASQGIRNDLGWYQQKPGKAPKRLIYAASSLQSGVPSRFSGSGSGTEFTLTISSLQPEDFATYYCLQHNSYPWTFGQGTKLEIK
notes: as for B3
Consider B4, for which the Kd with Human CD33 [3] was determined as 2.2 nM. In the assay with Human CD33 [4], this molecule returned an EC50 of 0.42 µg/mL.

B5: 9C3.2 (antibody, V domains shown)
VH: EVQLVESGGALIQPGGSLRLSCVASGFTISGNYMSWVRQAPGKGLEWVSLIYSGDSTYYADSVKGRFTISRDISKNTVYLQMNSLRVEDTAVYYCVRDGYYVSDMVVWGKGTTVTVSS
VL: DIQMTQSPSSLSASVGDRVTITCRASQGIRNDLGWYQQKPGKAPKRLIYAASSLQSGVPSRFSGSGSGTEFTLTISSLQPEDFATYYCLQHNSYPWTFGQGTKLEIK
notes: as for B3
Molecule B5 had a dissociation constant Kd in the assay with Human CD33 [3] of 2 nM. Besides, in the assay with Human CD33 [4], the EC50 stood at 0.46 µg/mL.

B6: 15G15 (antibody, V domains shown)
VH: QVQLVQSGAEVKKPGSSVKVSCKASGGIFSNHAISWVRQAPGQGLEWMGGIIPIFGTANYAQKFQGRVTITADESTSTAFMELSSLRSEDTAVYYCAREWADVFDIWGQGTMVTVSS
VL: not shown
For the molecule B6, the “Geom. Mean:FL1-H” value with huCD33 R69G variant [7] came out at 123.

B7: 15G15.33 (antibody, V domains shown)
VH: QVQLVQSGAEVKKPGSSVKVSCKASGGIFSNHAISWVRQAPGQGLEWMGGIIPIFGTANYAQKFQGRVTITADESTSTAFMELSSLRSEDTAVYYCAREWADVFDIWGQGTMVTVSS
VL: EIVLTQSPLSLPVTPGEPASISCRSSQSLLHSNGYNYLDWYLQKPGQSPQLLIYLGVNSVSGVPDRFSGSGSGTDFTLKISRVEAEDVGVYYCMQALQTPWTFGQGTKVEIK
notes: Variant of 15G15
With B7, the values for the Kd in the assay with Human CD33 [3], with Human CD33 [5] and in the assay with Cynomolgus monkey CD33 [6] were 0.9 nM, 0.7 nM and 0.3 nM, respectively.

B8: 15G15.83 (antibody, V domains shown)
VH: QVQLVQSGAEVKKPGSSVKVSCKASGGIFSNHAISWVRQAPGQGLEWMGGIIPIFGTANYAQKFQGRVTITADESTSTAFMELSSLRSEDTAVYYCAREWADVFDIWGQGTMVTVSS
VL: EIVLTQSPLSLPVTPGEPASISCRSSQSLLHSNGYNYLDWYLQKPGQSPQLLIYLGAYTVSGVPDRFSGSGSGTDFTLKISRVEAEDVGVYYCMQALQTPWTFGQGTKVEIK
notes: Variant of 15G15
For B8, the Kd in the assay with Human CD33 [3] stood at 0.5 nM; with Human CD33 [5], 0.5 nM; in the assay with Cynomolgus monkey CD33 [6], 0.2 nM.

B9: 7A1 (antibody, V domains shown)
VH: QVQLVQSGAEVKKPGSSVKVSCKASGGTFTSYAVSWVRQAPGQGLEWMGGIIPIFGTADYAQKFQGRVTITADESTSTAYMELSSLRSEDTAVYYCARELADVFDIWGQGTMVTVSS
VL: not shown
Take B9: the “Geom. Mean:FL1-H” value with huCD33 R69G variant [7] was found to be 125. In addition, the “Geom. Mean:FL4-H” value in assay [8] came to 772; in assay [9] it was 13. In the assay with Cynomolgus monkey CD33 [6], the Kd stood at 0.54 nM.

B10: 15G15.88 (antibody, V domains shown)
VH: QVQLVQSGAEVKKPGSSVKVSCKASGGIFSNHAISWVRQAPGQGLEWMGGIIPIFGTANYAQKFQGRVTITADESTSTAFMELSSLRSEDTAVYYCAREWADVFDIWGQGTMVTVSS
VL: EIVLTQSPLSLPVTPGEPASISCRSSQSLLHSNGYNYLDWYLQKPGQSPQLLIYLGNYRVSGVPDRFSGSGSGTDFTLKISRVEAEDVGVYYCMQALQTPWTFGQGTKVEIK
notes: Variant of 15G15
Regarding B10, the equilibrium dissociation constant (Kd) with Human CD33 [3] came out at 0.8 nM; in the assay with Human CD33 [5], 0.7 nM; in the assay with Cynomolgus monkey CD33 [6], 0.2 nM.

B11: 9C2 (antibody, V domains shown)
VH: QVQLVQSGAEVKKPGSSVKVSCKASGDTFSSYSISWVRQAPGQGLEWMGEIIPIFGTADYAQKFQGRVTITADISTTTAYMELSSLRSEDTAVYYCARTWADAFDIWGQGTMVTVSS
VL: not shown
Take B11: in the assay with huCD33 R69G variant [7], the “Geom. Mean:FL1-H” value is 71.7. The Kd was 10.3 nM with Human CD33 [3], 6.5 nM with Human CD33 [5] and 0.7 nM with Cynomolgus monkey CD33 [6]. The “fold binding over isotype control” value in assay [10] was at least 100 fold. In addition, the “Geom. Mean:FL4-H” value in [8] was 366; in [9] it was 11.2.

B12: 27C6 (antibody, V domains shown)
VH: EVQLQQSGPELVKPGASVKVSCKASGYAFTSYNMYWVKQSHGKSLEWIGYIDPYNGGTRHNQKFKDKATLTVDKSSSTAYMHLNSLTSEDSAVYYCASQNYEYFDYWGQGTTLTVSS
VL: DIVLTQSPKFMSTSVGDRVSITCKASQDVGDAVAWYQQKPGQSPKLLFYWTSTRHTGVPDRFTGSGSGTEFTLTIRNVQSEDLADYFCQQYRSTPLTFGSGTKVEIK
For the molecule B12, the Kd with Human CD33 [3] was 23 nM; with Human CD33 [5], 13.4 nM; in the assay with Cynomolgus monkey CD33 [6] it was 4.5 nM. In the assay with huCD33 R69G variant [1], the “Geom. Mean:FL1-H” value came to 32.3.

B13: 33H4 (antibody, V domains shown)
VH: EVQLQQSGAELVKPGASVKMSCKAFGYTFTTFPIEWMKQSHGKSLEWIGNFHPYNDQTKYNEEFKGRAKLTIDRSSSTVYLELGRLTSDDSAVYYCARGYYYAFDFWGQGTTLTVSS
VL: DIQMTQSPASLTVSLGQRATISCRASESVDSYGNSYLHWYQQKPGQPPQLLIYLASNLESGVPARFSGSGSRTDFTLTIDPVEADDAATYYCQQNNEDPWTFGGGTKVEIK
B13: the Kd in the assay with Human CD33 [3] amounted to 0.6 nM; with Human CD33 [5] it was 2.4 nM. The binding result with Cynomolgus monkey CD33 [11] is on record as “no binding”. Besides, the “Geom. Mean:FL1-H” value in the assay with huCD33 R69G variant [1] is 78.7.

B14: 10D3 (antibody, V domains shown)
VH: EVQLVESGAEVKKPGSSVKVSCKASGGTLISHAISWVRQVPGQGLEWMGGIIPIFGSANYAQKFQGRVTITADDSTNTAYLELSSLRSEDTAVYYCARELLDVFDIWGQGTMVTVSS
VL: not shown
In the case of B14, in the assay with huCD33 R69G variant [7], the “Geom. Mean:FL1-H” value worked out at 103. Also, the Kd with Human CD33 [3] was found to be 2.6 nM; in the assay with Human CD33 [5], 3.3 nM; in the assay with Cynomolgus monkey CD33 [6] it was 0.7 nM. The “fold binding over isotype control” value in assay [10] is at least 100 fold. The “Geom. Mean:FL4-H” value came to 684 in assay [8] and 12.1 in assay [9].

B15: 33F9 (antibody, V domains shown)
VH: EVQLQQSGPELVKPGASVKMSCKASGYTFTSYVMHWMKQKPGQGLEWIGYINPYNDGTKYNDKFKGKATLTSDKSSSTAYMELSSLTSEDSAVYYCARGSNYEDFAMDYRGQGTSVTVSS
VL: DIVMTQSPASQSASLGESVTITCLASQTIGTWLAWYQQKPGKSPQLLIYAATTLADGVPSRFSGSGSGTKFSFKISSLQAEDFVSYYCQQLYSTPLTFGGGTKVEIK
B15: the equilibrium dissociation constant (Kd) was around 9.2 nM with Human CD33 [3], 8.7 nM in the assay with Human CD33 [5] and 0.92 nM with Cynomolgus monkey CD33 [6]. Besides, the “Geom. Mean:FL1-H” value in the assay with huCD33 R69G variant [1] is 85.2.
